Patent US20090202980

T1: mouse non-amyloidogenic IAPP(20-29) core (ΔmIAPP)
T1 chain: SNNLGPVLPP

T2: human islet amyloid polypeptide, full length (fl-hIAPP)
T2 chain: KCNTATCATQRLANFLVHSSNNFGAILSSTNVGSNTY

T3: β2-glycoprotein I purified from fresh human plasma (in solution), P02749
T3 chain: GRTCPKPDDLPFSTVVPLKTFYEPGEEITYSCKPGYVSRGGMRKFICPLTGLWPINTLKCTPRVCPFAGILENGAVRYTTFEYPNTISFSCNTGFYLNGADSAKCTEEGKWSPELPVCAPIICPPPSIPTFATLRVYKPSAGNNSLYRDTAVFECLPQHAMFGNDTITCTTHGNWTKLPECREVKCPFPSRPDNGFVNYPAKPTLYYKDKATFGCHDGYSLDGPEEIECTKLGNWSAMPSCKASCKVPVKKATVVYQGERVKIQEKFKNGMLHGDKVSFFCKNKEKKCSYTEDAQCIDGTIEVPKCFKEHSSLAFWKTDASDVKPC

T4: human IAPP amyloid core fragment (ΔhIAPP)
T4 chain: SNNFGAILSS

T5: fibrin peptide 85 (FP13), human fibrin α-chain fragment α148-160
T5 chain: KRLEVDIDIKIRS

T6: recombinant human β2-glycoprotein I (expressed in insect cells), P02749
T6 chain: T3 chain

T7: fibrin peptide 87 (FP10), non-amyloid fragment of human fibrin α-chain(148-157)
T7 chain: KRLEVDIDIK

T8: fibrin peptide 86 (FP12)
T8 chain: KRLEVDIDIKIR

T9: amyloid fragment of transthyretin (TTR11)
T9 chain: YTIAALLSPYS

T10: laminin α1-chain(2097-2108) amyloid core peptide (LAM12)
T10 chain: AASIKVAVSADR

B1: recombinant tissue-type plasminogen activator (tPA) (protein)
chain: SYQVICRDEKTQMIYQQHQSWLRPVLRSNRVEYCWCNSGRAQCHSVPVKSCSEPRCFNGGTCQQALYFSDFVCQCPEGFAGKCCEIDTRATCYEDQGISYRGTWSTAESGAECTNWNSSALAQKPYSGRRPDAIRLGLGNHNYCRNPDRDSKPWCYVFKAGKYSSEFCSTPACSEGNSDCYFGNGSAYRGTHSLTESGASCLPWNSMILIGKVYTAQNPSAQALGLGKHNYCRNPDGDAKPWCHVLKNRRLTWEYCDVPSCSTCGLRQYSQPQFRIKGGLFADIASHPWQAAIFAKHRRSPGERFLCGGILISSCWILSAAHCFQERFPPHHLTVILGRTYRVVPGEEEQKFEVEKYIVHKEFDDDTYDNDIALLQLKSDSSRCAQESSVVRTVCLPPADLQLPDWTECELSGYGKHEALSPFYSERLKEAHVRLYPSSRCTSQHLLNRTVTDNMLCAGDTRSGGPQANLHDACQGDSGGPLVCLNDGRMTLVGIISWGLGCGQKDVPGVYTKVTNYLDWIRDNMRP
B2: human factor XII (Hageman factor) (protein)
chain: IPPWEAPKEHKYKAEEHTVVLTVTGEPCHFPFQYHRQLYHKCTHKGRPGPQPWCATTPNFDQDQRWGYCLEPKKVKDHCSKHSPCQKGGTCVNMPSGPHCLCPQHLTGNHCQKEKCFEPQLLRFFHKNEIWYRTEQAAVARCQCKGPDAHCQRLASQACRTNPCLHGGRCLEVEGHRLCHCPVGYTGAFCDVDTKASCYDGRGLSYRGLARTTLSGAPCQPWASEATYRNVTAEQARNWGLGGHAFCRNPDNDIRPWCFVLNRDRLSWEYCDLAQCQTPTQAAPPTPVSPRLHVPLMPAQPAPPKPQPTTRTPPQSQTPGALPAKREQPPSLTRNGPLSCGQRLRKSLSSMTRVVGGLVALRGAHPYIAALYWGHSFCAGSLIAPCWVLTAAHCLQDRPAPEDLTVVLGQERRNHSCEPCQTLAVRSYRLHEAFSPVSYQHDLALLRLQEDADGSCALLSPYVQPVCLPSGAARPSETTLCQVAGWGHQFEGAEEYASFLQEAQVPFLSLERCSAPDVHGSSILPGMLCAGFLEGGTDACQGDSGGPLVCEDQAAERRLTLQGIISWGSGCGDRNKPGVYTDVAYYLAWIREHTVS

Legend:
[1] = biological target: T1, mouse non-amyloidogenic IAPP(20-29) …
[2] = biological target: T2, human islet amyloid polypeptide, full …
[3] = biological target: T3, β2-glycoprotein I purified from fresh …
[4] = biological target: T4, human IAPP amyloid core fragment …
[5] = biological target: T5, fibrin peptide 85 (FP13), human fibrin …
[6] = biological target: human amyloid-β peptide Aβ(1-40)
[7] = biological target: endostatin (precipitated, cross-β structure-containing)
[8] = biological target: T6, recombinant human β2-glycoprotein I …
[9] = biological target: T7, fibrin peptide 87 (FP10), non-amyloid …
[10] = biological target: T8, fibrin peptide 86 (FP12)
[11] = biological target: Aβ(1-40) E22Q
[12] = biological target: FP13 K157G
[13] = biological target: T9, amyloid fragment of transthyretin …
[14] = biological target: T10, laminin α1-chain(2097-2108) amyloid …

| Protein | tPA-mediated plasminogen activation [1] | tPA-mediated plasminogen activation [2] | tPA-mediated conversion of plasminogen to plasmin (S-2251 conversion) [3] | tPA-mediated plasminogen activation [4] | tPA-mediated plasmin formation (plasminogen activation assay) [5] | activation of plasminogen by tPA (S-2251 conversion) [6] | tPA-mediated plasmin formation (plasminogen activation assay) [7] | tPA-mediated conversion of plasminogen to plasmin (S-2251 conversion) [8] | tPA-mediated plasmin formation (plasminogen activation assay) [9] | tPA-mediated plasmin formation (plasminogen activation assay) [10] | factor XII activation (Chromozym PK conversion via kallikrein) [1] | auto-activation of factor XII (S-2222 conversion) [11] | auto-activation of factor XII (S-2222 conversion) [12] | factor XII activation (Chromozym PK conversion via kallikrein) [5] | factor XII activation (Chromozym PK conversion via kallikrein) [6] | factor XII activation (Chromozym PK conversion via kallikrein) [13] | factor XII activation (Chromozym PK conversion via kallikrein) [9] | factor XII activation (Chromozym PK conversion via kallikrein) [14] |
| --- | --- | --- | --- | --- | --- | --- | --- | --- | --- | --- | --- | --- | --- | --- | --- | --- | --- | --- |
| B1 | but not mouse IAPP (Δ-mIAPP) | Both full-length (fl-hIAPP) and truncated amyloid core (Δ-hIAPP), but not mouse IAPP (Δ-mIAPP), stimulate tPA-mediated plasminogen activation | Recombinant β2gpi and not β2gpi purified from fresh plasma, stimulates effectively the tPA-mediated conversion of plasminogen to plasmin | Both full-length (fl-hIAPP) and truncated amyloid core (Δ-hIAPP), but not mouse IAPP (Δ-mIAPP), stimulate tPA-mediated plasminogen activation | peptides 85 and 86, both containing a cross-β structure, do stimulate the formation of plasmin by tPA | Aβ potently stimulates the activation of plasminogen by tPA | stimulating activity of cross-β structure-containing endostatin on tPA-mediated plasmin formation | Recombinant β2gpi and not β2gpi purified from fresh plasma, stimulates effectively the tPA-mediated conversion of plasminogen to plasmin | peptide 87, which lacks a cross-β structure, does not | peptides 85 and 86, both containing a cross-β structure, do stimulate the formation of plasmin by tPA |  |  |  |  |  |  |  |  |
| B2 |  |  |  |  |  |  |  |  |  |  | non-amyloid controls FP10 and mIAPP do not activate factor XII | the potency of the Aβ(1-40) E22Q is somewhat lower | FP13 K157G and Hb-AGE have a potency to induce auto-activation that is similar to the established surface activator DXS500k | amyloid-like peptide aggregates of FP13 and Aβ stimulate the activation of factor XII | amyloid-like peptide aggregates of FP13 and Aβ stimulate the activation of factor XII | cross-β structure-rich peptides LAM12 and TTR11 stimulate factor XII activation, to a similar extent as kaolin | non-amyloid controls FP10 and mIAPP do not activate factor XII | cross-β structure-rich peptides LAM12 and TTR11 stimulate factor XII activation, to a similar extent as kaolin |
